Earlier results as cited in patent publication US20080095848A1, “Pharmaceutical Composition For Topical Use In Form Of Xerogels Or Films And Methods For Production” (Ludwig-maximilian-University, priority 2004, published 2008).

Conditions: aqueous formulation, within two weeks

B1: EGF: growth factor; wound healing factor, protein unstable in aqueous formulation (protein, UniProt P01133 23-1207, looked up)
Pro-epidermal growth factor: PQHWSCPEGTLAGNGNSTCVGPAPFLIFSHGNSIFRIDTEGTNYEQLVVDAGVSVIMDFHYNEKRIYWVDLERQLLQRVFLNGSRQERVCNIEKNVSGMAINWINEEVIWSNQQEGIITVTDMKGNNSHILLSALKYPANVAVDPVERFIFWSSEVAGSLYRADLDGVGVKALLETSEKITAVSLDVLDKRLFWIQYNREGSNSLICSCDYDGGSVHISKHPTQHNLFAMSLFGDRIFYSTWKMKTIWIANKHTGKDMVRINLHSSFVPLGELKVVHPLAQPKAEDDTWEPEQKLCKLRKGNCSSTVCGQDLQSHLCMCAEGYALSRDRKYCEDVNECAFWNHGCTLGCKNTPGSYYCTCPVGFVLLPDGKRCHQLVSCPRNVSECSHDCVLTSEGPLCFCPEGSVLERDGKTCSGCSSPDNGGCSQLCVPLSPVSWECDCFPGYDLQLDEKSCAASGPQPFLLFANSQDIRHMHFDGTDYGTLLSQQMGMVYALDHDPVENKIYFAHTALKWIERANMDGSQRERLIEEGVDVPEGLAVDWIGRRFYWTDRGKSLIGRSDLNGKRSKIITKENISQPRGIAVHPMAKRLFWTDTGINPRIESSSLQGLGRLVIASSDLIWPSGITIDFLTDKLYWCDAKQSVIEMANLDGSKRRRLTQNDVGHPFAVAVFEDYVWFSDWAMPSVMRVNKRTGKDRVRLQGSMLKPSSLVVVHPLAKPGADPCLYQNGGCEHICKKRLGTAWCSCREGFMKASDGKTCLALDGHQLLAGGEVDLKNQVTPLDILSKTRVSEDNITESQHMLVAEIMVSDQDDCAPVGCSMYARCISEGEDATCQCLKGFAGDGKLCSDIDECEMGVPVCPPASSKCINTEGGYVCRCSEGYQGDGIHCLDIDECQLGEHSCGENASCTNTEGGYTCMCAGRLSEPGLICPDSTPPPHLREDDHHYSVRNSDSECPLSHDGYCLHDGVCMYIEALDKYACNCVVGYIGERCQYRDLKWWELRHAGHGQQQKVIVVAVCVVVLVMLLLLSLWGAHYYRTQKLLSKNPKNPYEESSRDVRSRRPADTEDGMSSCPQPWFVVIKEHQDLKNGGQPVAGEDGQAADGSMQPTSWRQEPQLCGMGTEQGCWIPVSSDKGSCPQVMERSFHMPSYGTQTLEGGVEKPHSLLSANPLWQQRALDPPHQMELTQ
modifications: Pro-epidermal growth factor
Q: Which loss of activity does the source give for B1 here?
A: Its loss of activity is 40%.
